Experimental data published in patent publication US20060270596A1 (CENTRE NATIONAL DE LA RECHERCHE SCIENTIFIQUE CNRS, published 2006).

T1: THAP1 chemokine-binding domain/IgG1-Fc fusion constructed as described in Example 18B (THAP1 amino acids … (human, UniProt Q5RCE4 140-213 (Pongo abelii entry)))
T1 construct: Secreted with an immunoglobulin kappa light chain signal peptide (left out); also called Chemotrap-I; Chemotrap; not shown: human IgG1-Fc polypeptide from the N-terminal hinge region to the native C-terminus (hinge, CH2, CH3)
T1 sequence: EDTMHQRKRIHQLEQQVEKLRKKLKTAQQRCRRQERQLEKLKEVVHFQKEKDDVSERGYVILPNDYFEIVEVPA

T2: human THAP1 (THanatos-Associated-Protein-1), full length (human, UniProt Q9NVV9 1-213)
T2 construct: these tags are not written into the chain; also called hTHAP1; THAP1 wild type
T2 sequence: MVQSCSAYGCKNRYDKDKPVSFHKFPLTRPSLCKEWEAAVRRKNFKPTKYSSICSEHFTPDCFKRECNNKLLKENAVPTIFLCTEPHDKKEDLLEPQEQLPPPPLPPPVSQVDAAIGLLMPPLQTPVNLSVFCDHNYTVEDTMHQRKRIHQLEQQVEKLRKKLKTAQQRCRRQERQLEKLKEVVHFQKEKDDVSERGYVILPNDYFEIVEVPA

T3: THAP1ΔQRCRR mutant (deletion of residues 168-172) (human, UniProt Q9NVV9 1-213)
T3 sequence: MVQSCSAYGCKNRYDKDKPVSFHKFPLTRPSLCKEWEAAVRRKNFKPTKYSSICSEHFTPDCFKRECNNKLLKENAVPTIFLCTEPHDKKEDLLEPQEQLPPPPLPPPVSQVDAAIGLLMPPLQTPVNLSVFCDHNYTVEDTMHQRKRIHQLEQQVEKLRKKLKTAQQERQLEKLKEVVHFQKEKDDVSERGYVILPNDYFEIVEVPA

T4: human THAP3, full length (human, UniProt Q8WTV1 1-239)
T4 construct: Two-hybrid fusion or 35S-labelled in vitro translation product
T4 sequence: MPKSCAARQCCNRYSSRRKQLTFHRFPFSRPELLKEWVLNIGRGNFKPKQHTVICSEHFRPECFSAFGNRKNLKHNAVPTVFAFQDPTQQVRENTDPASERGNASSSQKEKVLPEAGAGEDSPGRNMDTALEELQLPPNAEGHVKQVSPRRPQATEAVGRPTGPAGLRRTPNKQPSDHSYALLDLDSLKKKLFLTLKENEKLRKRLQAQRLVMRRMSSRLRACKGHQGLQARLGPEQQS

T5: THAP1-N1 deletion mutant (amino acids 1-90) (human, UniProt Q9NVV9 1-90)
T5 construct: Gal4 fusion, in vitro translation product or GFP fusion according to assay; also called zinc finger domain of THAP1
T5 sequence: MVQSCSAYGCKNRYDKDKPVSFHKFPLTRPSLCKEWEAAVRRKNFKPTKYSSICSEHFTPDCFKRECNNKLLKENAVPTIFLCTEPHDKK

T6: THAP1-N2 deletion mutant (amino acids 1-166) (human, UniProt Q9NVV9 1-166)
T6 construct: Gal4 fusion, in vitro translation product or GFP fusion according to assay
T6 sequence: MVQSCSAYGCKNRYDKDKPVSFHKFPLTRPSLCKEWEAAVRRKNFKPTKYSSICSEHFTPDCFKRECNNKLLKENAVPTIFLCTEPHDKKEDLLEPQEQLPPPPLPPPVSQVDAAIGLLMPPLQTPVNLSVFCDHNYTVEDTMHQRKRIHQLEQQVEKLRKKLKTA

T7: THAP1-C3 deletion mutant (amino acids 143-213) (human, UniProt Q9NVV9 143-213)
T7 construct: Gal4 fusion, in vitro translation product or GFP fusion according to assay
T7 sequence: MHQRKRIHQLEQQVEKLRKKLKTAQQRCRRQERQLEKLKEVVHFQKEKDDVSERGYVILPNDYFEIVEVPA

T8: THAP1-C1 deletion mutant (amino acids 90-213) (human, UniProt Q9NVV9 90-213)
T8 construct: Gal4 fusion, in vitro translation product or GFP fusion according to assay; also called THAP1-CL; THAP1ΔTHAP
T8 sequence: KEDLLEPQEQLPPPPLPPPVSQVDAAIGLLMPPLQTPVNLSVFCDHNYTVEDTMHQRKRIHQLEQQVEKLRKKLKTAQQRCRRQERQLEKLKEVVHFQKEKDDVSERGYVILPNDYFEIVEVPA

T9: THAP1-C2 deletion mutant (amino acids 120-213) (human, UniProt Q9NVV9 120-213)
T9 construct: Gal4 fusion, in vitro translation product or GFP fusion according to assay
T9 sequence: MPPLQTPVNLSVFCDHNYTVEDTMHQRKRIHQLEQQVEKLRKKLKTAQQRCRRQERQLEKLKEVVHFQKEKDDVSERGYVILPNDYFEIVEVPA

T10: THAP1-N3 deletion mutant (amino acids 1-192) (human, UniProt Q9NVV9 1-192)
T10 construct: Gal4 fusion, in vitro translation product or GFP fusion according to assay
T10 sequence: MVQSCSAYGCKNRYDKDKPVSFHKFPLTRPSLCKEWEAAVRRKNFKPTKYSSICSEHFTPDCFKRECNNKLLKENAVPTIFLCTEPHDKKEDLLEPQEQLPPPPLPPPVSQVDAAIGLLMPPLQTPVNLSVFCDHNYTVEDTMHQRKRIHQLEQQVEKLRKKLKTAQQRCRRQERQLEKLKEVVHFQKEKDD


Key:
[1] = target: T1, THAP1 chemokine-binding domain/IgG1-Fc …; assay: surface plasmon resonance (Biacore), Chemotrap-I coupled to the chip, CCL5/RANTES at 25, 50, 100 and 200 nM as analyte
Source text: (§1) In this Example, surface plasmon resonance (SPR) was used to determine the dissociation constant for the binding of Rantes/CCL5 to a THAP1 chemokine binding domain/IgG1-Fc fusion prepared as described in Example 18B. All SPR measurements were made using a Biacore 3000 system (Biacore, Uppsala Sweden). […] Dextran layer free biosensors, C1 type, were used to assay specific interaction between Rantes/CCL5 and the THAP1 chemokine-binding domain/IgG1-Fc fusion. Purified recombinant human Rantes/CCL5 (purchased from Chemicon) were used as analyte protein at a fixed concentration in the fluid phase (10 mM HEPES pH 7.4, 150 mM NaCl, 3 mM EDTA, 0.005% P20 surfactant, as a running buffer), and at a constant flow of 20 μl/minute. To determine the binding kinetics, association and dissociation curves were established for several increasing concentration of chemokine: 25 nM, 50 nM, 100 nM and 200 nM for CCL5, respectively. Chemokine was injected during the association phase for 4 minutes (20 μl/minute). The dissociation phase was carried out over a period of 5 minutes. Between each phase of association-dissociation, the flow cells were regenerated by injection of 0.05% SDS (30 seconds at a flow rate of 20 μl/minute). Biaevaluation (Biacore) software was used for calculations of association and dissociation kinetic constants. […]
(§2) The dissociation constant was calculated to be 49 nM.

[2] = target: T1, THAP1 chemokine-binding domain/IgG1-Fc …; assay: SPR (Biacore 3000); Fc fusion amine-coupled to a C1 sensor chip, Rantes/CCL5 as analyte at 25, 50, 100 and 200 nM; KD=kd/ka
Source text: as §1, §2

[3] = target: T2, human THAP1 …; assay: yeast two-hybrid, both orientations
Method: To identify potential protein partners of THAP1, screening of the two-hybrid HEVEC cDNA library was performed using as a bait the human THAP1 full length cDNA inserted into the […] two-hybrid system 3 vector pGBKT7 (Clontech). Briefly, the full-length coding region of THAP1 was amplified by PCR from HEVEC cDNA with primers 2HMR10 (5′-[…]-3′) (SEQ ID NO: 187) and 2HMR9 (5′-[…]-3′) (SEQ ID NO: 188), digested with EcoRI and BamHI, and cloned in frame downstream of the Gal4 Binding Domain (Gal4-BD) in pGBKT7 vector to generate pGBKT7-THAP1. pGBKT7-THAP1 was then cotransformed with the pGAD424-HEVEC cDNA library in yeast strain AH109 (Clontech). 1.5×10⁷ yeast transformants were screened and positive protein interactions were selected by His and Ade double auxotrophy according to manufacturer's instructions ([…] two-hybrid system 3, Clontech). The plates were incubated at 30° C. for 5 days. Plasmid DNA was extracted from these positive colonies and used to verify the specificity of the interaction by cotransformation in AH109 with pGBKT7-THAP1 or control baits pGBKT7, pGBKT7-lamin and pGBKT7-hevin. […] Positive interaction between THAP1 and Par4 was confirmed using full length Par4 bait (pGBKT-Par4) and prey (pGADT7-Par4). […]

[4] = target: T3, THAP1ΔQRCRR mutant (deletion of …); assay: yeast two-hybrid, Par4 wt bait
Method: for mutant THAP1ΔQRCRR. The resulting PCR fragments were digested with EcoRI and BamHI, and cloned in frame downstream of the Gal4 Binding Domain (Gal4-BD) in pGBKT7 two-hybrid vector (Clontech) to generate pGBKT7-THAP1-RR/AA and -Δ(QRCRR), or downstream of the Enhanced Green Fluorescent Protein (EGFP)ORF in pEGFP.C2 vector (Clontech) to generate pEGFP.C2-THAP1-RR/AA and -Δ(QRCRR). THAP1RR/AA and THAP1ΔQRCRR THAP1 mutants were then tested in the three THAP1/Par4 interaction assays (two-hybrid assay, in vitro THAP1/Par4 interaction assay, in vivo THAP1/Par4 interaction assay) as described above for the THAP1-C1, -C2, -C3, -N1, -N2 or -N3 mutants.

human THAP2, full length = target: T11, human THAP2, full length (human, UniProt Q9H0W7 1-228); assay: yeast two-hybrid with Par-4 wild type bait
T11 construct: Two-hybrid fusion or 35S-labelled in vitro translation product
T11 sequence (Q9H0W7 whole entry, the tested form may be a part): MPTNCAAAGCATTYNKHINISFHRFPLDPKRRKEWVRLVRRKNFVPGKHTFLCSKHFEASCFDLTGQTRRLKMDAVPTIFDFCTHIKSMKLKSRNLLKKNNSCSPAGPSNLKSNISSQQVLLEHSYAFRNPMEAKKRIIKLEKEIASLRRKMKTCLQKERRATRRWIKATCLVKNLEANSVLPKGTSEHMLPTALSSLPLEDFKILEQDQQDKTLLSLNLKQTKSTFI
Method: (§3) To assess whether THAP2 and THAP3 are able to interact with Par-4, yeast two hybrid assays using Par-4 wild type bait (FIG. 10B) and in vitro GST pull down assays (FIG. 10C), were performed as described above (Examples 4 and 5). As shown in FIGS. 10B and 10C, THAP2 and THAP3 are able to interact with Par-4. A sequence alignment showing the comparison of the THAP domain and the PAR4-binding domain between THAP1, THAP2 and THAP3 is shown in FIG. 10A.

human THAP3, full length = target: T4, human THAP3, full length; assay: yeast two-hybrid with Par-4 wild type bait
Method: as §3

[5] = target: T5, THAP1-N1 deletion mutant (amino acids …); assay: yeast two-hybrid, Par4 wt bait
[6] = target: T6, THAP1-N2 deletion mutant (amino acids …); assay: yeast two-hybrid, Par4 wt bait
[7] = target: T7, THAP1-C3 deletion mutant (amino acids …); assay: yeast two-hybrid, Par4 wt bait
[8] = target: T8, THAP1-C1 deletion mutant (amino acids …); assay: yeast two-hybrid, Par4 wt bait
[9] = target: T9, THAP1-C2 deletion mutant (amino acids …); assay: yeast two-hybrid, Par4 wt bait
[10] = target: T10, THAP1-N3 deletion mutant (amino acids …); assay: yeast two-hybrid, Par4 wt bait

koff [1]	kon [1]	Kd [2]	binding result [3]	binding result [4]	binding result (human THAP2, full length)	binding result (human THAP3, full length)	binding result [5]	binding result [6]	binding result [7]	binding result [8]	binding result [9]	binding result [10]	Binder
0.00229 s⁻¹	46400 M⁻¹ s⁻¹	49 nM	–	–	–	–	–	–	–	–	–	–	purified recombinant human Rantes/CCL5 (purchased from Chemicon) (ligand, Bought protein; also called recombinant Rantes/CCL5 human chemokine) SPYSSDTTPCCFAYIARPLPRAHIKEYFYTSGKCSNPAVVFVTRKNRQVCANPEKKWVREYINSLEMS
–	–	–	binds	no binding	binds	binds	no binding	no binding	binds	binds	binds	binds	human prostate apoptosis response-4 (PAR4), full length (other, Gal4-BD or Gal4-AD fusion in two-hybrid; also called Par4 wild type) MATGGYRTSSGLGGSTTDFLEEWKAKREKMRAKQNPPGPAPPGGGSSDAAGKPPAGALGTPAAAAANELNNNLPGGAPAAPAVPGPGGVNCAVGSAMLTRAPPARGPRRSEDEPPAASASAAPPPQRDEEEPDGVPEKGKSSGPSARKGKGQIEKRKLREKRRSTGVVNIPAAECLDEYEDDEAGQKERKREDAITQQNTIQNEAVNLLDPGSSYLLQEPPRTVSGRYKSTTSVSEEDVSSRYSRTDRSGFPRYNRDANVSGTLVSSSTLEKKIEDLEKEVVTERQENLRLVRLMQDKEEMIGKLKEEIDLLNRDLDDIEDENEQLKQENKTLLKVVGQLTR
